In patent publication US20140287419A1, “Compositions Having Dicamba Decarboxylase Activity and Methods of Use” (priority 2013, published 2014):

B1: 18 (protein, listed as Legionella pneumophila)
chain: MAIVDFETHFITEACIDYLTQRQEVPKLVPELNGAYTMCFTPDVSLFHTSALMEELLSLNEQRLAIMDQAGVTIQVLSLTTINGIDSCPGDENKSTALAREVNDQLYSAIQKHPERFKGFASISPYDVKEGVKELERAISQLGFVGWLTHSNFGQDNYLDDKIYWPLLEAAESLNIPIYLHPNVPIMREFGKYGFALGGSALGFEFDTALCLMRMILGGVFDAFPKLKIMLGHLGETMPFLMERLDHLYRIPDLKPYRPSIQRIPSEVLRQNVYITTSGRFFVPALRYVLEVMGEDRVLFASDYPMESLLDATRFIQDSDLSNQTKQKIFSINAKNLNLI
B2: 108 (protein, listed as Staphylococcus aureus)
chain: MAKSITFEEHYVIEDIQKETMNAISADPKGVPMKVMLEGLEKKTGFTNADELSHHDERIQFMNNQDVQIQVLSYGNGSPSNLVGQKAIELCQKANDQLANYIAQYPNRFVGFATLPINEPEAAAREFERCINDLGFKGALIMGRAQDGFLDQDKYDIIFKTAENLDVPIYLHPAPVNSDIYQSYYKGNYPEVTAATFACFGYGWHIDVGIHAIHLVLSGIFDRYPKLNMIIGHWGEFIPFFLERMDEALFAEHLNHSVSYYFKNSFYITPSGMLTKPQFDLVKKEVGIDRILYAADYPYIEPEKLGVFLDELGLTDEEKEKISYTNGAKLLGLSSNN
B3: 17 (protein)
chain: MARGKIALEEAFEVKGMDEEIDAQAALYIAPKDVERYKRQIVSITDERLQLSDQNGIGYSILSLTVPGIQGITDKDKAEKRARDVNNYIHDQIKDHRDRLGAFAALSMHDPRQAGHELRRCVKELGFHGALLNDVQHTGEGDDDQPLFYDQPDYDEFWRVAVELDVPVYLHPAAPLRDTLIYKQSYEDRKYLVGPPQSYCNGVALHLMGIIVNGVFDRFPNLKVIVGHMGERIPFDFWRMDHWVKGVTRPLAEKNGDTVCQKEPLYYFKRNIYITTSGHFSTQNLRYLYEWLGDERMMFSVDFPYERMEHGCQWYDDDAEKIKEALGGRDGYLRVGRDNARRLFKLTKFKDCDAV
modifications: Aspergillus niger
B4: 107 (protein, listed as Rhodopseudomonas palustris)
chain: MAIIDIHGHYTTAPKALEDWRNRQIAGIKDPSVMPKVSELKISDDELQASIIENQLKKMQERGSDLTVFSPRASFMAHHIGDFNVSSTWAAICNELCYRVSQLFPDNFIGAAMLPQSPGVDPKTCIPELEKCVKEYGFVAINLNPDPSGGHWTSPPLTDRIWYPIYEKMVELEIPAMIHVSTSCNTCFHTTGAHYLNADTTAFMQCVAGDLFKDFPELKFVIPHGGGAVPYHWGRFRGLAQEMKKPLLEDHVLNNIFFDTCVYHQPGIDLLNTVIPVDNVLFASEMIGAVRGIDPRTGFYYDDTKRYIEASTILTPEEKQQIYEGNARRVYPRLDAALKAKGK
B5: 19 (protein, listed as Talaromyces marneffei)
chain: MATPIITLEEHYISSAIRDASETDHYAVFPSQIISKLNTLSTERLQDLDNGHVSLQVISHGPGAQPPYLCQAANDELASAISANPTRFAGFALLPIAEPQLAVQELERCITQHKFVGALIDNHTNGQFYDDQKFWPVFEKAQELDAPIYVHPSYPDEESGVAAHYRGNYDDRIAAALGAYGWGWHSDTALSILRLFAAGLFDTYPNIKIIIGHMGEMLPFQLERVIGIASRFGRSRGLREVWTQNIWVTTSGMFALAPLACLLQTMPIERVLYSVDYPFSANEKGFAFLEEIKKSGLIKEGEDWERFLYKNAQELLKVNV
B6: 106 (protein, listed as Pyrococcus horikoshii)
chain: MAGMKFIKNLHVSKLVIDSMKALINGTIYTSFNPLKKVSGLVISHGKVIYAGDSEVAKKIVELSGGEIVDLKGKYVMPAFFDSHLHLDELGMSLEMVDLRGAKSIEELIQRLKRGKGRIIFGFGWDQDELGEWPTRKELNAIDKPVFIYRKCFHVAVANDKMLELLNLTPSKDFDEDTGIIKEKSLEEARKVINERVLTVEDYVYYIKRAQEHLLDLGVKSVSFMSVNEKALRALFYLEREGKLSINVFAYVTPEVLDKLESIGLGRFQGNRLTIAGVKLFTDGSLGARTALLSKPYSDDPSTSGQLVMEREELIRITEKARSLGLDVAIHAIGDKALDVALDVFETTGFPGRIEHASLVRDDQLERVKNLKVRLSVQPHFIISDWWIVERVGEERVKWVYRFKDLMKVAELGFSTDSPIEPADPWLTVDAAVNRGKGKVKLYELTKDQALDIKDALHSYTYGSARVSLASDIGKLEPGFKAEYIILDRDPLVVK
B7: 16 (protein, listed as Staphylococcus aureus)
chain: MAQNNMEANQMKSITFEEHYVIEDIQKETMNAISADPKGVPMKVMLEGLEKKTGFTNADELSHHDERIQFMNNQDVQIQVLSYGNGSPSNLVGQKAIELCQKANDQLANYIAQYPNRFVGFATLPINEPETAAREFERCINDLGFKGALIMGRAQDGFLDQDKYDIIFKTAENLGVPIYLHPAPVNSDIYQSYYKGNYPEVTAATFACFGYGWHIDVGIHAIHLVLSGIFDRYPKLNMIIGHWGEFIPFFLERMDEALFAEHLNHPVSYYFKNNFYITPSGMLTKPQFDLVKKEAGIDRILYAADYPYIEPEKLGVFLDELGLTDEEKEKISYTNGAKLLGLSSNN
B8: 14 (protein, listed as Talaromyces marneffei)
chain: MARGKVSFEEAYEIPALADKSREQAALYIAPKDLDRYLSEIKSPTGGRLDISNKNGIGYTIYSLTVPGVQGIADKAKAEKHATDVNNWIYNEIKDHRDRMGAFAALSMHDPVQAGQELERCVKKLGFHGALLNNWQHAGTDGETYIFYDHPSYDVFWQKCVELDVPVYLHPSAPSGKVFDTFFKDRRYLIGPPISFAQDVALHTMGLITNGVFDRNPKLKLILGHLGERIPQDLWRTNHWLEDVERPLADSRGDTMSRKPLLYYFKNNIYVTTSGHFSTETVKFVCDYFGADRILFSVDSPYEKIEEGAGWYDKDKDNLTKALGGPQQYLDVGRENAKKLFKLGKYHDCDA
B9: 12 (protein, listed as Zymoseptoria tritici)
chain: MALGKVAFEEAFALPRFKERTTWWAGLFAVDPEKHTREINDINKLRIEKMDQFGVGYTLLSYTAPGVQDVWQQEEADALAREVNDHVAAEIKGHEDRLGALATLSMHDPQTASAELRRCIKDYGFKGALVNDTQRNDESGTGMIFYDGPEWDVFWSTVQELDVPFYLHPRNPTGVFMEKLWAPRKWLVGPPLSFAQGVSLHLLGMVTNGTFDRFPNLQVIIGHLGEHLPFDLWRINHWFEDIKKPLGLDCKKTIREYFNENIWITTSGHFSTPTLEYCIKEIGAERILFSIDYPFEKFEDACDWYDGVELDGPDTVKKIGRENAKKLFKLGAFKDDSA
B10: 11 (protein)
chain: MALGKIALEEAFALPRFEEKTRWWASLFSVDPETHVKEITDINKLRIEHADKYGVGYQILSYTAPGVQDIWDPVEAQALAVEINDYIAEQIRDKPDRFGAFATLSMHNPQEAASELRRCVQTYGFKGALVNDTQRAGPDGDDMIFYDNASWDIFWQTCTELDVPLYLHPRNPTGTIYEKLWADRKWLVGPPLSFAQGVSLHVLGMVTNGVFDRHPNLQLIMGHLGEHVPFDMWRINHWFEDRKKLLGLAETCKKTIREYFAQNIWITTSGHFSTTTLNFCMAEVGVDRILFSIDYPFETFEDACVWFDGAELNLSDKAKIGRDNAARLFKLGAFRDYDAKVKA
modifications: Aspergillus niger
B11: 13 (protein, listed as Metarhizium acridum)
chain: MAHGKVALEEAFALPRLHEKTRWWASLFAVNPDKHAAEMTDITDIRINYMDKHGVGYTILSYTAPGVQDISDPKEAQALAVEINDYVAGAIKNHPDRFGAFATLSMRNPQEAATELKRCVTQYGFKGALVNDTQRAGEDDMIFYDGPEWDVFWSTVEELDVPFYLHPRNPTGSLYEKLWAKRKWLVGPPLSFAQGVSLHVLGMVTNGVFDRHPKLQVVLGHLGEHIPFDMWRINHWFEDVKKPLGLDCKKTIREYFQQNIWITTSGHFSTTTLQFCMAEVGADRILFSIDYPFECFADACDWYDGVPINLVDKAKIGRDNARRLFKLPEFKDSEKHVDA
B12: 10 (protein, listed as Starkeya novella)
chain: MARKIALEEHFTTPELAGKYVARPTQSDALFADIERRLADFDELRLEMMDRAEIDLMVLSVTTPGVQGVRDTGEAIRLARGANDFLAREVQKRPSRYAGFAHLAMQDAEAAATELERAVRELGFRGALINGQTNGHYLDEDQYAPFWERVQELDVPVYLHPGNMADSPAMFAHRPELGGPIWAWTAETAAHALRLVFGGTFTRFPGAKVILGHMGETLPFLLWRLDSRREFDLGEKLAPDALPSAIIKRNIAVTTSGVCDPAPLVAALQALSDDNVMFSVDYPYEDPQLASKFIETAPIGEETRAKVCHGNAERLLGL
B13: 9 (protein, listed as Octadecabacter antarcticus)
chain: MATPKITFEEHFMAPGFEKHSEAFLKLIPRDQAEILTRRLGDFDGERIETMDRGGITRSIISLTGPGTQGEAVEKAVSAAQGANDFLAEKISKKPDRLGGLATLPMHDPDAAARELNRAVNDLGLQGCLVNTHTHGAYYEGTDYDPFWAEVEKLGVPFYLHPSNAYVTPHVLGGMPVLQGATWGWGVETGSHALRILFGGVFDRFPDVKLVLGHMGEALPFLRWRYDSRFGAYPMGVSLDRAPSAYFGSNILITTSGVCSHPSLIGAIGEMGADAVMFSVDYPYEDTDLAVEFIETAPLEDATRVKICHDNAARLFGMPTLAAKEGA
B14: 15 (protein, listed as Metarhizium anisopliae)
chain: MAQEIAKSHETSTRFAGFAVLPMRDPEAAAKELERAVKKLGFVGALVDHKTAHGNGFCEGNEYDVLWRKAEQLAVPIYLHPSWPTEKQFQQAYAGNYSPTAAGTIGGAMFNWHSEVGHHVLRLYAAGVFDKFPKLKIIIGHFGEMIPYMLDRIREQDHRLGKTGRTFSEVYDENIWITTSGVWSLDPMRCILANTKIDHILYSVDYPFTMNERGLEWFQELEKSGLLSEEDLALIAYKNCEKLLGVKAPTQD

Test: 14C assay with IPTG-induced recombinant E. coli cells (14CO2 capture from [14C]-carboxyl-labeled dicamba)
Conditions: for Dicamba Decarboxylase Activity: IPTG-induced recombinant E. coli cells, [14C]-carboxyl-labeled dicamba, 14CO2 capture; for Enzymatic Detection level: dicamba decarboxylation activity of the protein of the given SEQ ID NO

| Molecule | Dicamba Decarboxylase Activity | Enzymatic Detection level |
| --- | --- | --- |
| B1 | Low | Low |
| B2 | High | High |
| B3 | Low | Low |
| B4 | No | No |
| B5 | High | High |
| B6 | No | No |
| B7 | High | High |
| B8 | Low | Low |
| B9 | No | No |
| B10 | Low | Low |
| B11 | No | No |
| B12 | Low | Low |
| B13 | No | No |
| B14 | Low | Low |
